Results published in the nanobody polyreactivity screen of Harvey et al. (2022).

Assay: yeast display, Sf9 membrane polyspecificity reagent, FACS + sequencing; frameworks hold sequencing errors
Summary of the method: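 Sorting gates, low and high (top ~1%), were placed on anti-HA fluorescence to track expression and on streptavidin fluorescence to track reagent binding. A clone's polyreactivity label is taken from the gate it came out of. The reagent was 10% biotinylated, detergent-solubilized Sf9 membrane, applied for 1 hour at 4 °C to galactose-induced yeast display cells.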

| Sequence | polyreactivity (PSR sort gate) |
| --- | --- |
| QVQLVESGGGLVQAGGSLRLSCAASGRIFYFNAMGWYRQAPGQERELVADISSGGRTNYADSVKGRFTISRDNAKNTVYLQMNSLKPEDTAVYYCNAEPYTSSGGYRGYDFDSWGQGTQVTVSS | low polyreactivity |
| QVQLVESGGGLVQAGGSLRLSCAASGRIFYFNSMGWYRQAPGKEREFVAAISGSGGDTYYADSVKGRFTISRDIAKNTVYLQMNSLKPEDTAVYYCAAEVYTWGQGTQVTVSS | low polyreactivity |
| QVQLVESGGGLVQAGGSLRLSCAASGRIFYFNVMGWYRQAPGKVRELVAAIRWSVGTTYYADSVKGRFTISRDNAKNTVYLQMNSLKPEDTAVYYCAARRSFPLGTARMYYWGQGTQVTVSS | high polyreactivity |
| QVQLVESGGGLVQAGGSLRLSCAASGRIFYFYALGWYRQAPGKERELVAAIDSGGSTYYADSVKGRFTISRDNAKNTVYLQMNSLKPEDTAVYYCNADGFYSWLYDYWGQGTQVTVSS | low polyreactivity |
| QVQLVESGGGLVQAGGSLRLSCAASGRIFYFYAMGGYRQAPGKERELVAAISRRGGTTNYADSVKGRFTISRDNAKNTVYLQMNSLKPEDTAVYYCAADYQSVGGAEYDYWGQGTQVTVSS | high polyreactivity |
| QVQLVESGGGLVQAGGSLRLSCAASGRIFYFYAMGLYTQAPGKERELVAVISYGGDRTSYADSVKGRFTISRDNAKNTVYLQMNSLKPEDSAVYYCAARPFYRGYYYWGQGTQVTVSS | high polyreactivity |
| QVQLVESGGGLVQAGGSLRLSCAASGRIFYFYAMGWSRQAPGKERELVAAITGSAGGTYYADSVKGRFTISRDTAKNTVYLQMNSLKPEDTAVYYCAAKYYGNKRDLYYWGQGTQVTVSS | low polyreactivity |
| QVQLVESGGGLVQAGGSLRLSCAASGRIFYFYAMGWYRQAPGKERELVAAISTSGGSTYYADSVKGRFTISRDNAKNTVYLQMNSLKPEDTAVYYCAARFRYYGSEYDYWGQGTQVTVAS | low polyreactivity |
| QVQLVESGGGLVQAGGSLRLSCAASGRIFYFYAMGWYRQAPGKERELVASISSGGITNYADSVKGRFTISRDNAKNTVYLQMNSLKPEDTAVYYCAADYGYYSRLYYWGQGTQVTVSS | low polyreactivity |
| QVQLVESGGGLVQAGGSLRLSCAASGRIFYFYVMGWYRQAPGKEREFVAAISQSGGSTYYADSVKGRFTISRDNAKNTVYLQMNSLKPEDTAVYYCAADLKAWGRYYYWGQGTQVTVSS | low polyreactivity |
| QVQLVESGGGLVQAGGSLRLSCAASGRIFYGNAMGWYRQAPGKERELVAAIRRSGGSTYYAESVKGRVTISRDNAKNTVYLQMNSLKPEDTAVYYRNADAFNKISYVWYDYWGQGPQVTVSS | low polyreactivity |
| QVQLVESGGGLVQAGGSLRLSCAASGRIFYGNAMGWYRQAPGKERELVAAISSGTSTNYADSVKGRFTISRDNAKNTVYLEMNRLKPEDTAVYDCAAGSYSRYLYSLYFDFDYWGQGTQVTVSS | low polyreactivity |
| QVQLVESGGGLVQAGGSLRLSCAASGRIFYGYAMGWYRQAPGKERDLVAGISYRGARTYYADSVKGRFTISRDNAKNTVYLQMTSLKPEDTAVYYCNAVPYYPFAFGALDYWGQGTQVTVSS | high polyreactivity |
| QVQLVESGGGLVQAGGSLRLSCAASGRIFYGYAMGWYRQAPGKERELVAAIRTSGGSTYYADSVKGRFTISRDNAKNTVYLQMNSLKPEDTAVYYCNAGIVPRNRYYTPYNYWGQGTQVTVSS | low polyreactivity |
| QVQLVESGGGLVQAGGSLRLSCAASGRIFYGYAMGWYRQAPGKERELVAAITYSGGITYYADSVKGRFTISRDNAKNTVYLQMNSLKPEDTAVYYCATSKSSVTGPDLDYWGQGTQVTVSS | high polyreactivity |
| QVQLVESGGGLVQAGGSLRLSCAASGRIFYGYSMGWSRQATGKEWELVAAISSSGGSTYYADSVKGRFTISRDNAKNTVSLQRNSVKPEDTAVYYCNAQRYRPGYWYDYWGQGTQVTVSS | high polyreactivity |
| QVQLVESGGGLVQAGGSLRLSCAASGRIFYGYTMGWYRQAPGKERELVAAISWSGGSTSYADSVKGRFTISRDNAKNTVYLQMNSLKPEDTAVYYCDVRYPGYRLYWGYTYDYWGQGTQVTVSS | high polyreactivity |
| QVQLVESGGGLVQAGGSLRLSCAASGRIFYHNVMGWYRQAPGKERELVAGIRSRGGSTSYADSVKGRFTISRDNAKNTVYLQMNSLKPEDTAVYYCATDTTLWYVLYDYWGQGTQVTVSS | low polyreactivity |
| QVQLVESGGGLVQAGGSLRLSCAASGRIFYINAMGWYRQAPGKERELVAAITEGGVSTYYADSVKGRFTISRDNAMNTVYLQMNSLKPEDTAVYYCNTTGGTDGIVIYEYWGQGTQVTVSS | low polyreactivity |
| QVQLVESGGGLVQAGGSLRLSCAASGRIFYINAMGWYRQAPGKERELVAAITGGDGSTTYADSVKGRFTISRDNAKNTVYLQMNSLKPEDTAVYYCNAVTARKYAESQFDHWGQGTQVTVSS | low polyreactivity |
| QVQLVESGGGLVQAGGSLRLSCAASGRIFYIYAMGWSRQAPGKERELVASITSSGTSTYADSVKGRFTISRDNAKNTVYLQMNSLKPEDTAVYYCNARGYPKSWRYSRGYEYWGQGTQVTVSS | low polyreactivity |
| QVQLVESGGGLVQAGGSLRLSCAASGRIFYKYAMGWYRPAPGKERELVASITRSGTSTDYADSVKGRFTISRDNAKNTVYLQMNSLKPEDTADYYCAKRFFSLNGYGYDYWGLGTQVTVSS | high polyreactivity |

| Sequence | polyreactivity (PSR sort gate) |
| --- | --- |
| QVQLVESGGGLVQAGGSLRLSCAASGRIFYKYAMGWYRQAPGKERELVAAISYSGGSTYYADSMKGRFTLSRDNAKNTVYLQMNSLTPEDTAVYYCATRRREAGIEYDYWGQGTQVTVSS | high polyreactivity |
| QVQLVESGGGLVQAGGSLRLSCAASGRIFYLKAMGWYRQAPGTERELVAAINTSGDSTYYADSVKGRFTISRDNAKNTVDLQMNSLKPEDTAVSYCAAYVIGPDQFIYDYWGQGTQVTVSS | low polyreactivity |
| QVQLVESGGGLVQAGGSLRLSCAASGRIFYLNVMGWYRQAPGKERELVAAITRRDVTTYADSVKGRFTISRDNAKNTVYLQMNSLKPEDTAVYYCNAVYYNWIGFDYWGQGTQVSVSS | low polyreactivity |
| QVQLVESGGGLVQAGGSLRLSCAASGRIFYLYAMGWYRQAPGKERELVAAISRSGGSTYYADSVKGRFTISRDNAKNTVYLQMNSLKPEDTAVYYCNTVWYFSSRTRLHDYWGQGTQVTVSS | high polyreactivity |
| QVQLVESGGGLVQAGGSLRLSCAASGRIFYLYVMGWYRQAPGKERELVAAISIGSTTNYADSVKGRFTISRDNAKNTVYLQMNSLKPEDTAVYYCNARDGPPFYDYWGQRTQVTVSS | low polyreactivity |
| QVQLVESGGGLVQAGGSLRLSCAASGRIFYMNAMGWYRQAPGKERELVAGITNSTTGTYYADSVKGRFTISRDNAKNTVYLQMNSLKPEDTAVYYCNTDVAYEEPVETYDYWGQGTQVTVSS | low polyreactivity |
| QVQLVESGGGLVQAGGSLRLSCAASGRIFYNAMGWYRQAPGKERELVAAITSNGGSTYYADSVKGRFTISRDNAKNTVYLQMNSLKPEDTAVYYCNAAIRYTASATHAFDYWGQGTQVTVSS | low polyreactivity |
| QVQLVESGGGLVQAGGSLRLSCAASGRIFYNYAMGWYRQAPGKERELVAAISGSGGSTYYADSVKGRFTISRDNAKNSVYLQMNSLKPEDTAVYYCSTSGPQYYSRNFDYWGQGTQVTVSS | low polyreactivity |
| QVQLVESGGGLVQAGGSLRLSCAASGRIFYNYAMGWYRQAPGKERELVAAITGGASTYADSVKGRFTISRDNAKNTVYLQMNRLKPEDTAVYYCAVDYYTYSLASGRTRMDYWGQGTQVTVSS | high polyreactivity |
| QVQLVESGGGLVQAGGSLRLSCAASGRIFYNYAMGWYRQAPGKERELVAAITRRAGRTYYADSVKGRFTISRDNAKNTVYLQMNSLKPEDTAVFYCAKDEPGSSRVLYDYWGQVTQVTVSS | low polyreactivity |
| QVQLVESGGGLVQAGGSLRLSCAASGRIFYNYDMGWYRQAPGKERELVAAITSGGNTYADSVKGRFTISRDNAKNTVYLQMNSLKPEDTAVYYCNARDKFYVPSQYAYDYWGQGTQVTVSS | low polyreactivity |
| QVQLVESGGGLVQAGGSLRLSCAASGRIFYNYGLGWYRQAPGKERELVARITTGGRTNYADSVKGRFTMSRDNAKNTVYLQMNSLKPEDTAVYYCNADGYHSRWYYYNYDYWGQGTQVTVSS | low polyreactivity |
| QVQLVESGGGLVQAGGSLRLSCAASGRIFYNYSMGWYRQAPGKEREVVAAISGSGGSTYYADSVKGRFTISRDNAKNTVYLQMNSLKPEDTAVYYGSTSGGQYYSRNFEYWGQGTQVTVSS | low polyreactivity |
| QVQLVESGGGLVQAGGSLRLSCAASGRIFYNYVMGWYRQAPGKERELVAAISDSGGSTYYADSVKGRFTISRDNAKNTVYLQMNSLKPEDTAVYYCNKVRPRKFWDYYYWGQGTQVTVSS | high polyreactivity |
| QVQLVESGGGLVQAGGSLRLSCAASGRIFYPNAMGWYRQAPGKERELVAAISSGGRTNYADSVKGRFTISRDNAKNTVYLQMNSLKPEDNAVYYCAARDRSQYTSTYAFGGGYWGHGTQVTVSS | low polyreactivity |
| QVQLVESGGGLVQAGGSLRLSCAASGRIFYPNGMGWYRQAPGKERELVAAITGSGGSTYYADSVKGRFTISRDNAKNTVYLQMNSLIPEDTAVYYCAATWRYYLYPLGPHEFDYWGQGTQVTVSS | low polyreactivity |
| QVQLVESGGGLVQAGGSLRLSCAASGRIFYPYAMGGYRQAAGKEREFVAAISSGVSTNYADSVTGRFTISRDNATTTVYLQMNSLKPEDTAVYYCARSYFRYASSYYQAVSHGYSGQGTQVTVSS | high polyreactivity |
| QVQLVESGGGLVQAGGSLRLSCAASGRIFYPYAMGWYRQAPGKERELVAAISGSGARTYYADSVKGRFTISRDNAKHTVYLQMNSLKPEDTAVYYCARYQSNSDDYWGQGTQVTVSS | high polyreactivity |
| QVQLVESGGGLVQAGGSLRLSCAASGRIFYPYAMGWYRQAPGKERELVAAITSDGGSTYYADSVKGRFTISRDNAKNTVYLQMNSLKPEDTAVYYCAAYEAYKANVGGGYYYWGQGTQVTVSS | low polyreactivity |
| QVQLVESGGGLVQAGGSLRLSCAASGRIFYPYAMGWYRQAPGKESEFVAAIRWSSGSTYYADSVKGRFTISRDNAKNTVYLQMNSLKPEDTAVYYCAAEGYDSYSYDYWGQGTQVTVSS | high polyreactivity |
| QVQLVESGGGLVQAGGSLRLSCAASGRIFYPYAMGWYRQAPGQERELVAVINGSGGSTYYADSVKGRFTISRDNAKNTVYLQMNSLKPEDTAVYYCAAVGAYSRNEYDYWGQGTQVTVSS | high polyreactivity |
